Biological target: the molecule itself
Experiment: turbidity

Protein: SGYDFEREGYS [SGYDFEREGYS peptide (wild type peptide, NP 287-297)]
- binding result: binds

From article doi:10.1101/847608 (bioRxiv, 2019)
